The values that follow come from patent US11214624.

This data set has as its target microtubule (in vitro reconstituted, taxol-stabilised).

B1: HA-tagged wild-type p68 (HA-p68), immunopurified from SW480 cell lysates (protein)
chain: MSGYSSDRDRGRDRGFGAPRFGGSRAGPLSGKKFGNPGEKLVKKKWNLDELPKFEKNFYQEHPDLARRTAQEVETYRRSKEITVRGHNCPKPVLNFYEANFPANVMDVIARQNFTEPTAIQAQGWPVALSGLDMVGVAQTGSGKTLSYLLPAIVHINHQPFLERGDGPICLVLAPTRELAQQVQQVAAEYCRACRLKSTCIYGGAPKGPQIRDLERGVEICIATPGRLIDFLECGKTNLRRTTYLVLDEADRMLDMGFEPQIRKIVDQIRPDRQTLMWSATWPKEVRQLAEDFLKDYIHINIGALELSANHNILQIVDVCHDVEKDEKLIRLMEEIMSEKENKTIVFVETKRRCDELTRKMRRDGWPAMGIHGDKSQQERDWVLNEFKHGKAPILIATDVASRGLDVEDVKFVINYDYPNSSEDYIHRIGRTARSTKTGTAYTFFTPNNIKQVSDLISVLREANQAINPKLLQLVEDRGSGRSRGRGGMKDDRRDRYSAGKRGGFNTFRDRENYDRGYSSLLKRDFGAKTQNGVYSAANYTNGSFGSNFVSAGIQTSFRTGNPTGTYQNGYDSTQQYGSNVPNMHNGMNQQAYAYPATAAAPMIGYPMPTGYSQ
On to B1, for which the % of gliding microtubules (n = 50), p68/Ca^2+-CaM, ATP came out at 74.2%; the % of gliding microtubules (n = 50), p68/Ca^2+-CaM, no ATP is 5.79%; the “ATPase activity (inorganic phosphate hydrolyzed from ATP)” value was “the protein demonstrated an even stronger microtubule stimulated ATPase activity”; the Maximum gliding speed, p68/Ca^2+-CaM, ATP was determined as 0.52 µm/min. The Maximum gliding speed, p68/Ca^2+-CaM, no ATP stood at 0.01 µm/min; the Mean gliding speed, p68/Ca^2+-CaM, ATP is 0.16 µm/min; the Mean gliding speed, p68/Ca^2+-CaM, no ATP was 0 µm/min.
